Experimental data published in the Human Domainome abundance scans (Beltran et al. 2025).

B1: POU domain, class 3, transcription factor 1, residues 247 to 324; numbered along this chain, Q03052 (parent)
chain: EDAPSSDDLEQFAKQFKQRRIKLGFTQADVGLALGTLYGNVFSQTTICRFEALQLSFKNMCKLKPLLNKWLEETDSSS

Variants of: B1
Test: abundance fitness (aPCA) (normalised: wild type 0, dead -1); higher = more abundant; growth selection in yeast, the domain comes from the species named
Conditions: Homo sapiens

Abundance fitness, by site and new letter:
K64: M -0.042; T -0.401; V -0.164; G -0.911; Q -0.009; C -0.38; A -0.199; R 0.002; N -0.334; Y -0.564; E -0.564; L -0.511; F -0.562; P -0.643; D -0.653; H -0.126; S -0.405; I -0.814
P65: F -0.175; C -0.139; S -0.179; R -0.205; Y -0.158; E -0.193; V -0.113; L -0.284; H -0.173; M -0.332; A -0.241; T -0.246; G -0.167; D -0.053; K -0.156; W -0.389; Q -0.451; N -0.266
A52: R -0.001; G -0.156; M -0.341; W -0.728; Q 0.021; V -1.02; N 0.23; K 0.163; P -0.929; D 0.041; L -0.275; I -0.56; C -0.362; H -0.141; S 0.036
S56: I -0.717; L -0.88; A -0.472; F -0.719; Y -0.745; T -0.287; C -0.439; V -0.945; P 0.09; K -0.309; G -0.198; E -0.31; R -0.501; H -0.724; Q -0.577; M -0.818; D 0.031
F57: L 0.003; A -0.142; D -0.063; Q 0.015; S -0.152; Y 0.37; R -0.012; K 0.005; M -0.048; P -0.014; C -0.394; V -0.144; W -0.127; H 0.031; T -0.047; I -0.273; G -0.275
K58: S -0.152; P 0.13; Q -0.012; I -0.045; R -0.142; M -0.024; V -0.272; A -0.096; G -0.074; D -0.185; F -0.433; W -0.303; L -0.347; C -0.53; E 0.031; T 0.021; H -0.07
F50: S -0.802; E -0.299; C -0.943; Q -0.498; H -1.09; P -0.484; I -0.556; D -0.993; A -0.826; R -0.785; K -0.903; W -0.742; N -0.874; M -0.597; G -0.736; V -0.561; L -0.718; Y -0.089
E51: H -0.98; N -0.461; R -0.501; Q -0.686; L -1.08; S -0.723; I -0.818; V -0.525; A -0.65; Y -0.899; T -0.668; G -0.251; D -0.381; F -0.756; K -0.414; P -0.781; M -0.503
L63: W -0.605; G -0.643; K -0.887; C -0.736; T -0.582; Y -0.368; R -0.766; D -0.297; F -0.148; N -0.117; M -0.11; E -0.436; P -0.769; V -0.315; S -0.791
K62: Q -0.184; T -0.058; P -0.882; L -0.119; G -0.365; E -0.095; H 0.03; C -0.224; F -0.278; N 0.06; M -0.075; R -0.15; D -0.268; Y 0.035; W -0.449
L53: R -0.052; K -0.135; P -0.759; D -0.646; T -0.336; N 0.319; I 0.064; H -0.111; E -0.494; A 0.042; W -0.478; Q -0.009; V -0.055; F -0.256; Y -0.112; S 0.051
M60: G -0.673; L -0.256; N 0.011; R -0.826; K -0.09; Q -1.05; V -0.701; A -0.244; P -1.18; T -0.396; S -0.448; C -0.604; E -0.948; I -0.811; W -0.826; Y 0.109
C61: P -0.988; F -0.538; D -0.96; A -0.001; L -0.048; M -0.036; V 0.045; H -0.357; W -0.148; S -0.212; E -0.078; Q 0.017; T -0.384; K -0.043; N -0.24; I -0.134; R -0.065; Y -0.164
L67: T -0.711; H -0.04; E -0.951; V -0.563; W -0.81; F -0.698; S -0.829; R -0.716; D -0.167; A -0.562; I -0.321; N -0.553; M -0.084; C -0.427; P -0.613; Q -1.2
C48: S 0.144; D 0.307; N -0.21; Y -0.312; T -0.086; I 0.094; H -0.021; G 0.032; V -0.151; Q 0.064; F 0.068; P -0.175; L -0.04; W -0.37; E 0.174; A 0.129; K -0.011
L66: W -0.33; D -0.822; E -0.936; I 0.035; S -0.767; M 0.162; P -0.644; G -0.78; F -0.031; R -0.504; A -0.226; Y 0.053; Q -0.4; V -0.18; K -0.299
L55: G -0.514; E -0.438; C -0.064; S -0.323; M -0.132; Q -0.645; Y -0.46; F -0.311; N -0.2; D -0.479; W -0.764; P -0.867; T -0.746; A -0.54; V -0.45; K -0.535; H -0.359
R49: W 0.051
I47: S -0.736; E -1.12; H -0.944; A -0.765; T -0.883; W -0.408; C -0.294; M -0.69; L -0.304; Q -0.954; P -0.661; V -0.228; D -1.24; R -0.555; G -0.751
T46: S -0.191; Y -0.037; Q -0.314; V -0.096; R -0.509
Q54: N -0.187; C -0.441; I -0.316; P -0.62; T -0.145; V -0.497; E 0.011; H -0.035; L -0.376; A -0.089; W -0.669; R -0.195; K -0.098; F -0.858
N59: C -0.198; S -0.084; W -0.223; E 0.132; T -0.128; R -0.017; V -0.031; K 0.042; F -0.62; H 0.096; I -0.197; G -0.04; L -0.074; D 0.193; Q -0.025; M 0.04; A 0.08
